# Source: article PMC10164577, “CAF-1 deposits newly synthesized histones during DNA replication using distinct mechanisms on the leading and lagging strands”
# B1: 43 bp DNA (dsDNA)
# DNA 1: CTAGAGCTGTCTACGAGCAATTGAGCGGCCTCGGCACCGGGAT
# DNA 2: ATCCCGGTGCCGAGGCCGCTCAATTGCTCGTAGACAGCTCTAG
# B2: 53 bp DNA (dsDNA)
# DNA 1: CGGTGCTAGAGCTGTCTACGAGCAATTGAGCGGCCTCGGCACCGGGATTCTGA
# DNA 2: TCAGAATCCCGGTGCCGAGGCCGCTCAATTGCTCGTAGACAGCTCTAGCACCG
# B3: 33 bp DNA (dsDNA)
# DNA 1: GCTGTCTACGAGCAATTGAGCGGCCTCGGCACC
# DNA 2: GGTGCCGAGGCCGCTCAATTGCTCGTAGACAGC
# Biological target: CAF-1 (Cac1-Cac2-Cac3) (Saccharomyces cerevisiae? (yeast), UniProt Q12495;Q04199;P13712 1-606;1-468;1-422)
# Assay: EMSA; EMSA: 25 mM Tris pH 7.5, 150 mM NaCl, 1 mM EDTA, 0.02% Tween-20, 1 mM TCEP, 50 nM DNA, 6% PAGE; SEC: 50 mM HEPES pH 7.5, 200 mM NaCl, 0.01% IGEPAL, 1 mM TCEP, 10 mM MgCl2, PCNA loading at 30 C with 3 mM ATP, CAF-1 at room temperature
# Details: protein: recombinant, chain copies: 2;2;2, blunt
binder,measurement,setting,value
B1,Kd,,230 nM
B2,Kd,,180 nM
B3,Kd,label: 5' Alexa Fluor 647 on forward strand,330 nM
